These results are taken from US20250026815A1 (GAN AND LEE PHARMACEUTICALS, published 2025).

First the molecules themselves.
B1: R18-22D7QH (antibody, human IgG1, kappa, V domains shown)
VH: EVKLLESGGGLVQPGGSLKLSCAASGFDFSRYWMSWVRQAPGKGLEWIGEINPDSSTINYTPSLKDKFIISRDNAKNTLYLQMSKVRSEDTALYYCARRGGISYAMDYWGQGTSVTVSS
VL: DIVITQDELSNPVTSGESVSISCRSSKSLLYKDGKTYLNWFLQRPGQSPQLLIYLMSTRASGVSDRFSGSGSGTDFTLEISRVKAEDVGVYYCQQLVEYPRTFGGGTKLEIKR
notes: also called chimeric antibody of R18-22D7
B2: R10-10B2QH (antibody, human IgG1, kappa, V domains shown)
VH: QVQLEESGAELVRSGASVKLSCTASGFNIKDYYIHWVKQRPEQGLEWIGWNDPENGDTEYAPKFQGKATMTADTSSNTVYLQLSSLTSEDSAVYFCKSFDSYLEYWGQGTSVTVSS
VL: DIVMTQTTLSLPVNLGDQASISCRSSQSLVHTDGNTFLEWYLQRPGQSPKLLIYKVSIRFSGVPDRFSGSGSGTDFTLKISRVETEDLGVYYCFQGSHVPRTFGGGTKLEIKR
notes: also called chimeric antibody of R10-10B2
B3: R1-11C3QH (antibody, human IgG1, kappa, V domains shown)
VH: EVQLEESGAELVRSGASVKLSCTASGFNIKDYYMHWVKQRPEQGLEWIGWIDPENGDTEYAPKFQGKATLTADTSSNTAYLQLSTLTSEDNAVYYCNAAYYGDYVEDMDYWGQGTSVTVSS
VL: B2 VL with T8P, P12S, N14S, L29I, T32S, R44K, I58N, T85A, G96A, V99L
notes: also called chimeric antibody of R1-11C3
B4: R18-11B1QH (antibody, human IgG1, kappa, V domains shown)
VH: EVQLEESGPELVKPGASVKISCKSSAQTFSGSWINWVKQRPGQGLEWIGRIFPGDGDTKYNMNFTGKATLTADKSSNTAYMHVSSLTSVDSAVYFCARYDGYYDIGYFDVWGAGTTVTVSS
VL: DIVMTQTPASLAVSLGQRATISCRASASVDSYGNKFIHWYQQKPGQPPKLLISLASNLESGVPARFSGSGSRTDFTLTIDPVEADDAATYYCQQTNEDPWTFGGGTKLEIKR
notes: also called chimeric antibody of R18-11B1
B5: R3-39A3QH (antibody, human IgG1, kappa, V domains shown)
VH: QVKLEESGPELVKPGASVKISCKASGYAFSSSWVNWVQQRPGQGLEWIGRIYPGDGETKYSGKFRGKATLTADKSSNTVYMQVSSLTSVDSAVYFCAREGGLITSSGYYHAMDYWGQGTSVTVSS
VL: DIVLTQSPPSLAVSLGQRATISCRASKSVDSYGNGFMHWYQQKPGQPPKLLIFLASNLESGVPARFSGSGSRTDFTLTIDPVEADDAASYYCQQSDEDPTFGGGTKLEIKR
notes: also called chimeric antibody of R3-39A3
B6: R10-6A11QH (antibody, human IgG1, kappa, V domains shown)
VH: QVKLEESGPGILQPSQTLSLTCSFSGFSLSTSGMGVSWIRQPSGKGLEWLAHIYWDDDKNYNPSLKSRLTISKDTSRNQVFLKITSVDTADTATYYCARKIYYDYDYALDYWGQGTSVTVSS
VL: DIVMTQAAFSNPVTLGTSASISCRSSKSLLHSNGITYLCWFLQKPGQSPQLLIYQMSNLASGVPDRFSGSGSGTDFTLRISRVEAEDVGVYYCAQNLELWTFGGGTKLEIKR
notes: also called chimeric antibody of R10-6A11
B7: R10-19B2QH (antibody, human IgG1, kappa, V domains shown)
VH: EVKLQESGPGMLQPSQTLSLTCSFSGFSLSTSGMGVSWIRQPSGKGLEWLAHIYWDDDKNFNPSLRSRLIISKDPSRNQVFLEITSVDTADTATYFCARKLYNDYDYILDYWGQGTSVTVSS
VL: B6 VL
B8: R3-16A10QH (antibody, human IgG1, kappa, V domains shown)
VH: EVKLEESGPELVKPGASVKISCKTSGYAFSDSWMNWVKQRPGQGLEWIGRIYPGDGDTQYNGKVKGKATLTADKSSSTAYMQVSSLTSVDSAVYFCAREGGMITSSGYYHALDYWGQGTSVTVSS
VL: DIVMTQSPASLAVSLGQRTTISCRASESVDSYGNSFLNWYQQKPGQPPKVLIYLASNLESGVPARFSGSGSRTDFTLIIDPVEADDAATYYCQQNNEDPTFGGGTKLEIKR
notes: also called chimeric antibody of R3-16A10
B9: R3-38B6QH (antibody, human IgG1, kappa, V domains shown)
VH: B8 VH with E1Q, K3Q, T24A, D31S, N61H, S106N
VL: B8 VL with S7T, P8T, L15Q, T19A, R24S, L37M, I78T
notes: also called chimeric antibody of R3-38B6
B10: A2-G (antibody, human IgG1, kappa, V domains shown)
VH: QVTLKESGPALVKPTQTLTLTCTFSGFSLSTSGMGVSWIRQPPGKALEWLAHIYWDDDKNFNPSLRSRLTITKDPSKNQVVLTMTNMDPVDTATYFCARKLYNDYDYILDYWGQGTTVTVSS
VL: DIVMTQSPLSLPVTPGEPASISCRSSKSLLHSNGITYLGWFLQKPGQSPQLLIYQMSNLASGVPDRFSGSGSGTDFTLKISRVEAEDVGVYYCAQNLELWTFGQGTRLEIKR
notes: also called humanized mutant antibody A2-G
B11: A2-I (antibody, V domains shown)
VH: B10 VH
VL: DIVMTQSPLSLPVTPGEPASISCRSSKSLLHSNGITYLIWFLQKPGQSPQLLIYQMSNLASGVPDRFSGSGSGTDFTLKISRVEAEDVGVYYCAQNLELWTFGQGTRLEIK
notes: also called humanized mutant antibody A2-I
B12: A2-Q (antibody, V domains shown)
VH: B10 VH
VL: B11 VL with I39Q
notes: also called humanized mutant antibody A2-Q
B13: A2-M (antibody, V domains shown)
VH: B10 VH
VL: B11 VL with I39M
notes: also called humanized mutant antibody A2-M
B14: A2-A (antibody, human IgG1, kappa, V domains shown)
VH: B10 VH
VL: B10 VL with G39A
notes: also called humanized mutant antibody A2-A
B15: A2-N (antibody, V domains shown)
VH: B10 VH
VL: B11 VL with I39N
notes: also called humanized mutant antibody A2-N
B16: A2-P (antibody, V domains shown)
VH: B10 VH
VL: B11 VL with I39P
notes: also called humanized mutant antibody A2-P

Positions count from the first letter of the chain named.

The term Kd denotes the equilibrium constant for the complex coming apart. One may read the koff as the rate constant with which the complex falls apart. Broadly, the kon is a measure of how fast the partners come together.

T1 sequence (P03420 26-109, chain 1 of 2): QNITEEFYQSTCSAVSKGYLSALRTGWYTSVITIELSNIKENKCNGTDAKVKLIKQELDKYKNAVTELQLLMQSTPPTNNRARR
T1 sequence (P03420 137-524, chain 2 of 2): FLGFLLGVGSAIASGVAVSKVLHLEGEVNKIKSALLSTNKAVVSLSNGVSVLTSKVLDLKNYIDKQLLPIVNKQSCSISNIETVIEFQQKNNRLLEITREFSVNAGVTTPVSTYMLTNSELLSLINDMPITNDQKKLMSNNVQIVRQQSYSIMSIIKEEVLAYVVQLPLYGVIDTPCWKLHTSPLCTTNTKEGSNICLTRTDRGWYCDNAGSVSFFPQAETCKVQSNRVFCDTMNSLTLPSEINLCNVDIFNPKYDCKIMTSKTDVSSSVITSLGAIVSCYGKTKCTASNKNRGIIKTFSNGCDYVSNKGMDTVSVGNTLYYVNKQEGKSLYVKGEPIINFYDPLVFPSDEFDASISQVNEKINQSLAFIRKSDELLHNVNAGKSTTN

The target in the first test is RSV-F protein of RSV A2 virus (as carried by the live virus in the neutralisation assay) (human respiratory syncytial virus, …, UniProt P03420 26-574). As to the kind of experiment: cell-based or functional assay.
Sequence of RSV-F protein of RSV A2 virus (as carried by the live virus in the neutralisation assay) (P03420 26-574): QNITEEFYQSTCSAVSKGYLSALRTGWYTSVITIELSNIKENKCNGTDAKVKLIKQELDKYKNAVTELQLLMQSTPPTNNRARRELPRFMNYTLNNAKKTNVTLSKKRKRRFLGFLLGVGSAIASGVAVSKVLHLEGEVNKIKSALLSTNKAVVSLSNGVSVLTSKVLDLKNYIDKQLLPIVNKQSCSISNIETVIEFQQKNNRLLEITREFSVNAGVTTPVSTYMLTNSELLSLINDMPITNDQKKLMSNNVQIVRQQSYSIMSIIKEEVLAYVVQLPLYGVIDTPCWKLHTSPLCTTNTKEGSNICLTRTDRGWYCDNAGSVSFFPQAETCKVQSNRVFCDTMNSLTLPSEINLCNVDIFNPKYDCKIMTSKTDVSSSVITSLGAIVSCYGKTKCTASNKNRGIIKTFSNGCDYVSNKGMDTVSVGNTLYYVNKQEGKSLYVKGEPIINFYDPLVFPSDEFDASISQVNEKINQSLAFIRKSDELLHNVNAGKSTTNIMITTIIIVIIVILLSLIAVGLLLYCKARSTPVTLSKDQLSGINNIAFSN
On to B1, for which the “Absolute IC50, neutralizing RSV A2 (HEp-2 cells, indirect ELISA)” value (from here on “Absolute IC50, neutralizing RSV A2”) is 30 ng/mL.

Regarding B2, the “Absolute IC50, neutralizing RSV A2” value worked out at 96.8 ng/mL.

On to B3, for which the “Absolute IC50, neutralizing RSV A2” value was determined as 118 ng/mL.

On to B4, for which the “Absolute IC50, neutralizing RSV A2” value came out at 101 ng/mL.

With B5, the “Absolute IC50, neutralizing RSV A2” value turned out to be 5.92 ng/mL.

B6: the “Absolute IC50, neutralizing RSV A2” value was found to be 7.45 ng/mL.

Take B7: the “Absolute IC50, neutralizing RSV A2” value turned out to be 12 ng/mL.

In the case of B8, the “Absolute IC50, neutralizing RSV A2” value amounted to 11.8 ng/mL.

Regarding B9, the “Absolute IC50, neutralizing RSV A2” value came to 17.6 ng/mL.

The next test has as its target RSV-F protein of RSV A Long virus (as carried by the live virus in the neutralisation assay) (human respiratory syncytial virus, …, UniProt P12568 26-574). As to the kind of experiment: cell-based or functional assay.
Take B1: the “Absolute IC50, neutralizing RSV A Long (HEp-2 cells, indirect ELISA)” value (“Absolute IC50, neutralizing RSV A Long” for short) is 68.2 ng/mL.

On to B2, for which the “Absolute IC50, neutralizing RSV A Long” value worked out at 214 ng/mL.

For B3, the “Absolute IC50, neutralizing RSV A Long” value was 316 ng/mL.

B4: the “Absolute IC50, neutralizing RSV A Long” value was 43.2 ng/mL.

B6: the “Absolute IC50, neutralizing RSV A Long” value was 19.9 ng/mL.

Regarding B7, the “Absolute IC50, neutralizing RSV A Long” value came out at 10.2 ng/mL.

As to B8, the “Absolute IC50, neutralizing RSV A Long” value stood at 25.8 ng/mL.

Turning to B9, the “Absolute IC50, neutralizing RSV A Long” value was 73.3 ng/mL.

In the next test the target is RSV-F protein of RSV B9320 virus (as carried by the live virus in the neutralisation assay) (human respiratory syncytial virus, …). As to the kind of experiment: cell-based or functional assay.
Turning to B1, the “Absolute IC50, neutralizing RSV B9320 (HEp-2 cells, indirect ELISA)” value (“Absolute IC50, neutralizing RSV B9320” below) was 8.93 ng/mL.

With B2, the “Absolute IC50, neutralizing RSV B9320” value is 91.5 ng/mL.

In the case of B3, the “Absolute IC50, neutralizing RSV B9320” value amounted to 66.6 ng/mL.

As to B6, the “Absolute IC50, neutralizing RSV B9320” value came out at 266 ng/mL.

For the molecule B7, the “Absolute IC50, neutralizing RSV B9320” value was 21 ng/mL.

In the case of B8, the “Absolute IC50, neutralizing RSV B9320” value was found to be 72.6 ng/mL.

The next test addresses T1, recombinant RSV-F protein (RSV A2 strain fusion (F) protein with added His tag) (human respiratory syncytial virus, A2 …, UniProt P03420 26-524).
T1 construct: also called RSV-F recombinant protein
As to the kind of experiment: SPR (Biacore), antibody captured, RSV-F as analyte. (In general: In SPR one partner is held on a chip, and binding of the other changes the refractive index at the surface.)
Regarding B1, the Kd turned out to be 3.54 nM, the koff turned out to be 0.00127 s⁻¹ and the kon was 357000 M⁻¹ s⁻¹.

With B2, the Kd worked out at 0.0489 nM, the koff came to 3.68e-05 s⁻¹ and the kon was 753000 M⁻¹ s⁻¹.

With B3, the Kd was 0.0256 nM, the koff came to 1.41e-05 s⁻¹ and the kon turned out to be 549000 M⁻¹ s⁻¹.

Take B4: the Kd was determined as 0.205 nM, the off-rate constant (koff) came to 0.000169 s⁻¹ and the kon stood at 824000 M⁻¹ s⁻¹.

With B5, the Kd came out at 0.171 nM, the koff worked out at 0.000115 s⁻¹ and the kon worked out at 673000 M⁻¹ s⁻¹.

B6: the koff was found to be 0.000339 s⁻¹ and the kon amounted to 1.03e+06 M⁻¹ s⁻¹.

With B8, the koff turned out to be 2.69e-05 s⁻¹ and the kon came to 537000 M⁻¹ s⁻¹.

Regarding B9, the Kd turned out to be 0.061 nM, the koff stood at 3.02e-05 s⁻¹ and the kon turned out to be 495000 M⁻¹ s⁻¹.

A further test deals with T1, recombinant RSV-F protein (RSV A2 …). As to the kind of experiment: SPR (Biacore), antibody captured, RSV-F as analyte. This is another data set of the same source.
In the case of B10, the koff turned out to be 0.000138 s⁻¹ and the kon worked out at 1.97e+06 M⁻¹ s⁻¹.

For B11, the koff is 0.000162 s⁻¹ and the kon worked out at 3.07e+06 M⁻¹ s⁻¹.

In the case of B12, the koff amounted to 0.000166 s⁻¹ and the kon was determined as 2.38e+06 M⁻¹ s⁻¹.

With B13, the koff was found to be 0.000138 s⁻¹ and the kon was 2.31e+06 M⁻¹ s⁻¹.

For B14, the koff stood at 0.000117 s⁻¹ and the kon was found to be 2.3e+06 M⁻¹ s⁻¹.

Turning to B15, the koff was found to be 0.000165 s⁻¹ and the on-rate constant (kon) was determined as 1.61e+06 M⁻¹ s⁻¹.

Consider B16, for which the koff came out at 0.000156 s⁻¹ and the kon stood at 3.57e+06 M⁻¹ s⁻¹.

The target is the same in the next test. As to the kind of experiment: SPR (Biacore), antibody captured, RSV-F as analyte; column head prints nM, Kd/Ka gives M.
On to B10, for which the Kd stood at 0.07 nM.

Consider B11, for which the Kd was determined as 0.0528 nM.

B12: the Kd worked out at 0.0698 nM.

As to B13, the Kd came to 0.0597 nM.

Regarding B14, the Kd was found to be 0.0509 nM.

In the case of B15, the Kd is 0.102 nM.

Turning to B16, the Kd was found to be 0.0438 nM.
